Blank lines part the entries; values can stand above or below the binder they belong to.
Key:
[1] = target: human CD3 on T cells (Jurkat reporter cells, human primary T cells) (human) (UniProt P07766); assay: cell-based or functional assay
[2] = target: T1, recombinant human CD3E (ECD) (human, UniProt P07766 23-126); assay: ELISA with human CD3E; % Binding plotted against pH (6.0 to 7.4), relative to pH 6.0; Fab concentration not shown on the sheet
T1 construct: extracellular domain; This is the coated antigen of the ELISA; also called extracellular domain of human CD3E
Experimental: (§1) The plates were then blocked with 200 μL ELISA assay diluents with BSA after discarding the coating solution and washing three times with washing buffer (pH-adjusted 1×PBS+0.05% Tween). […] The plates were washed three times with pH-adjusted 1×PBS buffer and incubated with horseradish peroxidase (HRP) conjugated with goat anti-human IgG Fc for about 30 minutes (min) to one hour. After washing three times, the bound HRP enzyme was detected by addition of 100 μL/well […] substrate (BioFX Laboratories, MD, USA) for about 1 to 5 min and then the detection of color was done based on 630 nm absorption. The pH-adjusted 1×PBS buffer of about pH 6.0, 6.1, 6.2, 6.3, 6.4, 6.5, 6.6, 6.7, 6.8, 6.9, 7.0, 7.1, 7.2, 7.3, 7.4, 7.5 or 7.6 can be based on a regular PBS buffer that is substantially the same as the well-known Cold Spring Harbor Lab's recipe which comprises 137 mM NaCl, 2.7 mM KCl, 10 mM Na₂HPO₄, 1.8 mM KH₂PO₄, and optionally 1 mM CaCl₂) and 0.5 mM MgCl₂, wherein the buffer's pH is adjusted using HCl or H₃PO₄. Alternatively, the pH-adjusted 1×PBS buffers can be based on a modified PBS recipe that comprises 118-146 mM NaCl, 2.7 mM KCl, 10 mM Na₂HPO₄, 1.8 mM KH₂PO₄, and optionally 1 mM CaCl₂) and 0.1-0.8 mM MgCl₂, iron (0-9 mM), sulfide (0.8-5 mM), and optionally further comprising one or more components selected from the following: 5-15 mM D-glucose, NaHCO₃(5-20 mM), 0.1 mM NEAA (non-essential amino acids), 2-20 mM lactic acid and 0.1-0.5% BSA, wherein the buffer's pH is adjusted using HCl or H₃PO₄.

[3] = target: T2, extracellular domain of cynomolgus monkey CD3E (cynomolgus monkey, UniProt Q95LI5 22-117); assay: ELISA with monkey CD3E; % Binding plotted against pH (6.0 to 7.4), relative to pH 6.0; Fab concentration not shown on the sheet
T2 construct: extracellular domain; This is the coated antigen of the ELISA; also called cyno CD3
T2 sequence (looked up): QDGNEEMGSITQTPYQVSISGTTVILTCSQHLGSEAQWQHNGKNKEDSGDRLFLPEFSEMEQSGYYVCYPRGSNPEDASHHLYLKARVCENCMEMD
Experimental: as §1, with “Alternatively, the pH-adjusted 1×PBS buffers can be based on a modified PBS recipe that comprises 118-146 mM NaCl, 2.7 mM KCl, 10 mM Na₂HPO₄, 1.8 mM KH₂PO₄, and optionally 1 mM CaCl₂) and 0.1-0.8 mM MgCl₂, iron (0-9 mM), sulfide (0.8-5 mM), and optionally further comprising one or more components selected from the following: 5-15 mM D-glucose, NaHCO₃(5-20 mM), 0.1 mM NEAA (non-essential amino acids), 2-20 mM lactic acid and 0.1-0.5% BSA, wherein the buffer's pH is adjusted using HCl or H₃PO₄.” left out

human CD3 on T cells (Jurkat reporter cells, human primary T cells) (human), sequence (P07766 23-207): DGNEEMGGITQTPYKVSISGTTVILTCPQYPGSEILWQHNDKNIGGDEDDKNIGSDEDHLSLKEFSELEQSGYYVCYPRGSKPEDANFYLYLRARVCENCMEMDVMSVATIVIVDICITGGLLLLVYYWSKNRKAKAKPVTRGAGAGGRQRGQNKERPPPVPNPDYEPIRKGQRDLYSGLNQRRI
T1 sequence (P07766 23-126): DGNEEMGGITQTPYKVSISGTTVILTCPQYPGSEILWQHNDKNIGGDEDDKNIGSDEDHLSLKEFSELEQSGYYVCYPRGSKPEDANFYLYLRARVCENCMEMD

- binding result [2]: binds
- binding result [3]: binds
B6: h10.v1 (Fab) (Fab, V domains shown)
VH: EVQLVQSGAEVKKPGASVKVSCKASGYTFTSYYVHWVRQAPGQGLEWIGWIYPGDFNTKFNEKFKGRVTLTADTSASTAYMELSSLRSEDTAVYYCARDAYSYYYFDYWGQGTLVTVSS
VL: DIVMTQSPDSLAVSLGERATINCKSSQSLLNSRTRKNYLAWYQQKPGQPPKLLIYWATTRDSGVPDRFSGSGSGTDFTLTISSLQAEDVAVYYCIQSYTTRTFGGGTKVEIK
notes: Tested as a Fab; the Fab constant domains are not; also called non-pH-selective conventional control clone; conventional anti-CD3 control antibody

- binding result [2]: binds
B7: h10.v49 (Fab) (Fab, V domains shown)
VH: EVQLVQSGAEVKKPGASVKVSCKASGYTFTSYYYHWVRQAPGQGLEWIGWIYPGDFNTKFNEKFKGRVTLTADTSASTAYMELSSLRSEDTAVYYCARDHYHQYYFDYWGQGTLVTVSS
VL: DIVMTQSPDSLAVSLGERATINCKSSQSLLNSRTRHNYLAWYQQKPGQPPKLLIYWATTRASGVPDRFSGSGSGTDFTLTISSLQAEDVAVYYCIQSYTGRTFGGGTKVEIK
notes: Tested as a Fab

The remaining lines, values behind:

B1: CD3(h10.v39)×TROP-2(RS7.v1) assembled in a human IgG1-Fc (Knobs-in-Holes) (bispecific antibody, not shown: a dimerising Fc or GST)
heavy: EVQLVQSGAEVKKPGASVKVSCKASGYTFTSYYTHWVRQAPGQGLEWIGWIYPGDFNTKFNEKFKGRVTLTADTSASTAYMELSSLRSEDTAVYYCARDHYGYYYFDYWGQGTLVTVSS
light: DIVMTQSPDSLAVSLGERATINCKSSQSLLNSRTRHNYLAWYQQKPGQPPKLLIYWATTRASGVPDRFSGSGSGTDFTLTISSLQAEDVAVYYCIQSYTGRTFGGGTKVEIK
VH: EVQLQQSGSELKKPGASVKVSCKASGYTFTNYGMNWVKQAPGQGLKWMGWINTYTGEPTYTDDFKGRFAFSLDTSVSTAYLQISSLKADDTAVYFCARGGFGSSYWYFDVWGQGSLVTVSS
VL: DIQLTQSPSSLSASVGDRVSITCKASQDVSIAVAWYQQKPGKAPKLLIYSASYRYTGVPDRFSGSGSGTDFTLTISSLQPEDFAVYYCQQHYITPLTFGAGTKVEIK
- percent killing of MDA-MB-468 cells at the pH 6.6 ECmax dose, pH 7.4 [1]: 16%
- percent killing of TROP-2-high MDA-MB-468 cells, pH 6.6 [1]: 100%

B2: CD3 (h10.v38)×TROP-2 (RS7.v1) hIgG1-Fc (KiH) (bispecific antibody, not shown: a dimerising Fc or GST)
heavy: EVQLVQSGAEVKKPGASVKVSCKASGYTFTSYYYHWVRQAPGQGLEWIGWIYPGDFNTKFNEKFKGRVTLTADTSASTAYMELSSLRSEDTAVYYCARDHYGYYYFDYWGQGTLVTVSS
light: DIVMTQSPDSLAVSLGERATINCKSSQSLLNSRTRHNYLAWYQQKPGQPPKLLIYWATTRASGVPDRFSGSGSGTDFTLTISSLQAEDVAVYYCIQSYTGRTFGGGTKVEIK
VH: EVQLQQSGSELKKPGASVKVSCKASGYTFTNYGMNWVKQAPGQGLKWMGWINTYTGEPTYTDDFKGRFAFSLDTSVSTAYLQISSLKADDTAVYFCARGGFGSSYWYFDVWGQGSLVTVSS
VL: DIQLTQSPSSLSASVGDRVSITCKASQDVSIAVAWYQQKPGKAPKLLIYSASYRYTGVPDRFSGSGSGTDFTLTISSLQPEDFAVYYCQQHYITPLTFGAGTKVEIK
- T cell mediated killing of DU-145 cells, EC50, pH 6.9 [1]: 144 nM
- T cell mediated killing of MDA-MB-468 cells, EC50, pH 6.6 [1]: 0.3 nM
- T cell mediated killing of MDA-MB-468 cells, EC50, pH 7.0 [1]: 9 nM
- T cell mediated killing of MDA-MB-468 cells, ECmax, pH 6.6 [1]: 30 nM
- fold reduction of MDA-MB-468 killing potency with human PBMCs (E:T about 5.5:1), pH 7.4 against pH 6.6 [1]: 80 fold

B3: h10.v38 (Fab) (Fab, V domains shown)
VH: EVQLVQSGAEVKKPGASVKVSCKASGYTFTSYYYHWVRQAPGQGLEWIGWIYPGDFNTKFNEKFKGRVTLTADTSASTAYMELSSLRSEDTAVYYCARDHYGYYYFDYWGQGTLVTVSS
VL: DIVMTQSPDSLAVSLGERATINCKSSQSLLNSRTRHNYLAWYQQKPGQPPKLLIYWATTRASGVPDRFSGSGSGTDFTLTISSLQAEDVAVYYCIQSYTGRTFGGGTKVEIK
notes: Tested as a Fab
- binding result [2]: binds

B4: h10.v27 (Fab) (Fab, V domains shown)
VH: EVQLVQSGAEVKKPGASVKVSCKASGYTFTSYYYHWVRQAPGQGLEWIGWIYPGDFNTKFNEKFKGRVTLTADTSASTAYMELSSLRSEDTAVYYCARDHYGYYYFDYWGQGTLVTVSS
VL: DIVMTQSPDSLAVSLGERATINCKSSQSLLNSRTRHNYLAWYQQKPGQPPKLLIYWATTRDSGVPDRFSGSGSGTDFTLTISSLQAEDVAVYYCIQSYTGRTFGGGTKVEIK
notes: Tested as a Fab
- binding result [2]: binds

B5: h10.v23 (Fab) (Fab, V domains shown)
VH: EVQLVQSGAEVKKPGASVKVSCKASGYTFTSYYVHWVRQAPGQGLEWIGWIYPGDFNTKFNEKFKGRVTLTADTSASTAYMELSSLRSEDTAVYYCARDHYGYYYFDYWGQGTLVTVSS
VL: DIVMTQSPDSLAVSLGERATINCKSSQSLLNSRTRHNYLAWYQQKPGQPPKLLIYWATTRASGVPDRFSGSGSGTDFTLTISSLQAEDVAVYYCIQSYTGRTFGGGTKVEIK
notes: Purified and used as a Fab; also called anti-CD3 clone h10.v23
- binding result [2]: binds

Reference: patent US20240279334A1 (AMBERSTONE BIOSCIENCES, published 2024)
